Values joined by “and” are separate entries in the source; they are usually repeats but may differ in a detail not shown here. Equal values may be shown once. Blank lines part the entries; values can stand above or below the molecule they belong to. Ends that are not written are not given here.
What was measured:
mouse GPVI (mouse) = mouse GPVI (mouse) (UniProt P0C191); assay: cell-based or functional assay
GPVI peptide 53 (human) [1] = biological target: T1, GPVI peptide 53 (human); assay: PepSpot control incubation
T1 sequence (peptide, N-terminus acetylated): LVATGVFAKPSLS

GPVI peptide 117 (human) [2] = biological target: T2, GPVI peptide 117 (human); assay: PepSpot control incubation
T2 sequence (peptide, N-terminus acetylated): SFTNKVFTTETSR

GPVI peptide 131 (human) [3] = biological target: T3, GPVI peptide 131 (human); assay: PepSpot control incubation
T3 sequence (peptide, N-terminus acetylated): ARQYYTKGNGGRE

GPVI peptide 7 (human) [4] = biological target: T4, GPVI peptide 7 (human); assay: PepSpot control incubation
T4 sequence (peptide, N-terminus acetylated): LCLGRVPAQSGPL

GPVI peptide 11 [5] = biological target: T5, GPVI peptide 11 (human); assay: PepSpot control incubation
T5 peptide: Ac-QSGPLPKPSLQAL

GPVI peptide 37 [6] = biological target: T6, GPVI peptide 37 (human); assay: PepSpot control incubation
T6 peptide: Ac-LFIPAMKRSLAGR

GPVI peptide 32 (human) [7] = biological target: T7, GPVI peptide 32 (human); assay: PepSpot control incubation
T7 sequence (peptide, N-terminus acetylated): SSSRYQDQAVLFI

GPVI peptide 33 (human) [8] = biological target: T8, GPVI peptide 33 (human); assay: PepSpot control incubation
T8 sequence (peptide, N-terminus acetylated): SRYQDQAVLFIPA

GPVI peptide 130 (human) [9] = biological target: T9, GPVI peptide 130 (human); assay: PepSpot control incubation
T9 sequence (peptide, N-terminus acetylated): GPARQYYTKGNGG

GPVI peptide 54 [10] = biological target: T10, GPVI peptide 54 (human); assay: PepSpot control incubation
T10 peptide: Ac-ATGVFAKPSLSAQ

GPVI peptide 118 (human) [11] = biological target: T11, GPVI peptide 118 (human); assay: PepSpot control incubation
T11 sequence (peptide, N-terminus acetylated): TNKVFTTETSRSI

[12] = biological target: collagen (type I bovine; BD Bioscience) (bovine) (UniProt P02453); assay: ELISA, collagen type 1 coated plates, Lineweaver-Burk plot
collagen (type I bovine; BD Bioscience) (bovine), sequence (P02453 162-1217, chain 1 of 2): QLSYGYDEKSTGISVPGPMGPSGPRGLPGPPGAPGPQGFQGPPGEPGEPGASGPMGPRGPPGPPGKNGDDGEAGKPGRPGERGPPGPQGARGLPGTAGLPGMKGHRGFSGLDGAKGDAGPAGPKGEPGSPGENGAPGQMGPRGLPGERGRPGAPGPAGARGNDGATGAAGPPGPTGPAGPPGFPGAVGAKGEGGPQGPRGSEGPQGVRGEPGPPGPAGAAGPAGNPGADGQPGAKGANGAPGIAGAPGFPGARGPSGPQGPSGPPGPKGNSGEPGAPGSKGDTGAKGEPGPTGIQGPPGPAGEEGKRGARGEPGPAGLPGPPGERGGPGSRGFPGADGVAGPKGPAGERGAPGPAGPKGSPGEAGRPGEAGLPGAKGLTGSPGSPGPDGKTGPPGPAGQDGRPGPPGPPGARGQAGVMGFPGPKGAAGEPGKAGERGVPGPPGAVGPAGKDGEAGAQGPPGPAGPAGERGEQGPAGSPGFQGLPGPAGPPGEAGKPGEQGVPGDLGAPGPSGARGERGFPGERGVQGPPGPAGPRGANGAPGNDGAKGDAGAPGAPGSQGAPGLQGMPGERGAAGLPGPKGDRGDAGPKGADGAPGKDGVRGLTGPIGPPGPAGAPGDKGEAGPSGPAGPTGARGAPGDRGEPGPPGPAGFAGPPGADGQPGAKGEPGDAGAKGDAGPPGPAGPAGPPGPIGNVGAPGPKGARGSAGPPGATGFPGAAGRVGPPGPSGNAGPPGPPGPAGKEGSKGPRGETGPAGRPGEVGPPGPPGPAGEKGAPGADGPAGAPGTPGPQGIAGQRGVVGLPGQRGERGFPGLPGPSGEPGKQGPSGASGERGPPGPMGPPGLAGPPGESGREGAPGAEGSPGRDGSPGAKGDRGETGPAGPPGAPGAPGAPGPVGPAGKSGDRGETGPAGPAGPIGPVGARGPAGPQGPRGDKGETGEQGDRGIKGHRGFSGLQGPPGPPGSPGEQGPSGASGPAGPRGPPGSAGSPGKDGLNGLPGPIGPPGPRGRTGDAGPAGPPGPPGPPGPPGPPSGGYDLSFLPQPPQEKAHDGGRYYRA
collagen (type I bovine; BD Bioscience) (bovine), sequence (P02465 80-1117, chain 2 of 2, further chain): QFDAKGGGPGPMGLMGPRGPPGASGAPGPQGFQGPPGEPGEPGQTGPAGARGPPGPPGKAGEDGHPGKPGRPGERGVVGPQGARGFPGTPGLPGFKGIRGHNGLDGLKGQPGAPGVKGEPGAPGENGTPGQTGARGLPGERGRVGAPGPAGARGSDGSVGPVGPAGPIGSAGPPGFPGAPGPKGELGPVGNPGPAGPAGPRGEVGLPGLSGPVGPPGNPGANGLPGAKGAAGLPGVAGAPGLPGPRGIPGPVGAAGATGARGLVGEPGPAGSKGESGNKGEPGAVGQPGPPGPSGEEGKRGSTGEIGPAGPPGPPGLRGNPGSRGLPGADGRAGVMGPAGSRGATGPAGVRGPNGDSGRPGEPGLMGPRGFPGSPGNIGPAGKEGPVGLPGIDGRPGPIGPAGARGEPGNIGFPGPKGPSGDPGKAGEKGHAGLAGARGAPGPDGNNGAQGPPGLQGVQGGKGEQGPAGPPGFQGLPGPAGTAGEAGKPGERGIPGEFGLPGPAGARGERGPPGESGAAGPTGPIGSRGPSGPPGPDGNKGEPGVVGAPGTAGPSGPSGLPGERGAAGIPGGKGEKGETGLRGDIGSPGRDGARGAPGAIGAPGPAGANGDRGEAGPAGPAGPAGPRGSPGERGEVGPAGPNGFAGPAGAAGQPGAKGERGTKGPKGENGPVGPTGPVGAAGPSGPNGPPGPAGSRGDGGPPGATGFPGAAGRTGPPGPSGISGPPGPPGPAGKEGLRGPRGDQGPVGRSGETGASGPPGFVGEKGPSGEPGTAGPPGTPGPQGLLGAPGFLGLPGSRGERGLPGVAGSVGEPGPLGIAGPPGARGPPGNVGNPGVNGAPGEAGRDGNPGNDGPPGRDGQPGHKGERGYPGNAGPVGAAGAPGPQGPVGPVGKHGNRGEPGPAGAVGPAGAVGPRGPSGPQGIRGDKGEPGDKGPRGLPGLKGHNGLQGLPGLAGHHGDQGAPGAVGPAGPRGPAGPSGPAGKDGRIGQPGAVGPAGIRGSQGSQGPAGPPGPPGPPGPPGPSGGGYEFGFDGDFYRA

Fc-GPVI-nt (human) = assay: competition ELISA, immobilized collagen
Fc-GPVI-nt (human), sequence (chain, as listed by the source limits assumed): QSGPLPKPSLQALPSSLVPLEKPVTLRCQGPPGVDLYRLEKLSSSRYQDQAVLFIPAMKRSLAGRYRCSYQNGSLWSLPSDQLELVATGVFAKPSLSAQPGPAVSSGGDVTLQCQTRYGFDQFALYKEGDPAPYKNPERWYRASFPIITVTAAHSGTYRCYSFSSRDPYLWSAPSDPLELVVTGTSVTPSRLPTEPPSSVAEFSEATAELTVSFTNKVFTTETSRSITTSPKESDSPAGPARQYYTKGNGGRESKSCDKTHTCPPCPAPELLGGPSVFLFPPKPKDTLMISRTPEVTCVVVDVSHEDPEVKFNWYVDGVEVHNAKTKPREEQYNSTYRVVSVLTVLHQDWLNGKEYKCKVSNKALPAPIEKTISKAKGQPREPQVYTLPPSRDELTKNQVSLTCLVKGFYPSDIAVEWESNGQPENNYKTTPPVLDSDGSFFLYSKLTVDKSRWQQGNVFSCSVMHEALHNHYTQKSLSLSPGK

GPVI peptide 11 [13] = biological target: T5, GPVI peptide 11; assay: PepSpot array
Protocol: (§1) The peptides were synthesized on a cellulose membrane in a stepwise manner resulting in a defined arrangement (peptide array) and are covalently bound to the cellulose membrane. Binding assays were performed directly on the peptide array. In general an antigen peptide array is incubated with blocking buffer for several hours to reduce non-specific binding of proteins or antibodies. It follows the incubation with a primary (antigen peptide-binding) antibody in blocking buffer and an incubation with a horseradish peroxidase (HRP)-labelled secondary antibody, which binds selectively the primary antibody. Alternatively a HRP-labelled primary antibody in blocking buffer can be used.
(§2) A short T(Tween)-TBS-buffer washing directly after the incubation of the antigen peptide array with the secondary protein or antibody or the HRP-labelled primary antibody followed by the first chemiluminescence experiment is made to get an first overview which antigen peptides do bind the primary antibody. Several buffer washing steps follow (T-TBS- and TBS-buffer) to reduce false positive binding (unspecific antibody binding to the cellulose membrane itself). After these washing steps the final chemiluminescence analysis is performed. The data were analysed with an imaging system showing the signal intensity (Light units, LU) as single measurements for each peptide. In order to evaluate non-specific binding of secondary antibodies, incubations using the secondary antibody have to be performed in the absence of the primary antibody as control incubation.

GPVI peptide 37 [14] = biological target: T6, GPVI peptide 37; assay: PepSpot array
Protocol: as §1, §2

GPVI peptide 54 [15] = biological target: T10, GPVI peptide 54; assay: PepSpot array
Protocol: as §1, §2

GPVI peptide 53 (human) [16] = biological target: T1, GPVI peptide 53 (human); assay: PepSpot array
GPVI peptide 117 (human) [17] = biological target: T2, GPVI peptide 117 (human); assay: PepSpot array
GPVI peptide 131 (human) [18] = biological target: T3, GPVI peptide 131 (human); assay: PepSpot array
GPVI peptide 7 (human) [19] = biological target: T4, GPVI peptide 7 (human); assay: PepSpot array
GPVI peptide 32 (human) [20] = biological target: T7, GPVI peptide 32 (human); assay: PepSpot array
GPVI peptide 33 (human) [21] = biological target: T8, GPVI peptide 33 (human); assay: PepSpot array
GPVI peptide 130 (human) [22] = biological target: T9, GPVI peptide 130 (human); assay: PepSpot array
GPVI peptide 118 (human) [23] = biological target: T11, GPVI peptide 118 (human); assay: PepSpot array

mouse GPVI (mouse), sequence (P0C191 22-313): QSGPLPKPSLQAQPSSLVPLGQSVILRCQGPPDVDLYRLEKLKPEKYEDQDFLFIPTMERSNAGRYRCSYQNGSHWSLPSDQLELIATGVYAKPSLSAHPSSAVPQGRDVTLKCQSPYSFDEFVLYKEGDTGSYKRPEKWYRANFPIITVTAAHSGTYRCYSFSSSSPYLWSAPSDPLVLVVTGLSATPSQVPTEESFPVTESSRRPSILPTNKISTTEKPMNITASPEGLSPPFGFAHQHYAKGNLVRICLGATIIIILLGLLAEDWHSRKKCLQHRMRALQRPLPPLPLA

Molecule: anti-rat-HRP (Sigma A9037) (antibody)
LU (Light Units) (GPVI peptide 53 (human) [1]): 240 LU
LU (Light Units) (GPVI peptide 117 (human) [2]): 377 LU
LU (Light Units) (GPVI peptide 131 (human) [3]): 389 LU
LU (Light Units) (GPVI peptide 7 (human) [4]): 239 LU
LU (Light Units) (GPVI peptide 11 [5]): 212 LU
LU (Light Units) (GPVI peptide 37 [6]): 280 LU
LU (Light Units) (GPVI peptide 32 (human) [7]): 240 LU
LU (Light Units) (GPVI peptide 33 (human) [8]): 204 LU
LU (Light Units) (GPVI peptide 130 (human) [9]): 343 LU
LU (Light Units) (GPVI peptide 54 [10]): 190 LU
LU (Light Units) (GPVI peptide 118 (human) [11]): 354 LU

Molecule: soluble collagen (ligand)
concentration required to reduce Fc-GPVI-nt binding to immobilized collagen by more than 50% (Fc-GPVI-nt (human)): 100 µg/mL

B1: monoclonal antibody hGP 5C4 (antibody, V domains shown)
VH: EVKLQESGGGLVQPGRSLKLSCTASGFTFSDYFMSWVRQAPTRGLEWVASISSGGASAYWRDSVKGRFTISRDNAKSALYLQMDSLRSEDTATYFCARGELDFDYWGQGVMVAVSS
VL: ADPNSTLLSASVGDRVTLNCTASQNVYKNLAWYQQKLGEAPRLLLYSANSQTGIPSRFSGSGSGPDFTLTISSLQPEDVASYFCQQYYSGNTFGAGTKLELKR
notes: Monoclonal IgG from Lou/C rats immunized with Fc-GPVI-nt; also called ab 5C4; anti-GPVI mAb 5C4
signal to noise ratio (GPVI peptide 11 [13]): ~20
signal to noise ratio (GPVI peptide 37 [14]): ~4
signal to noise ratio (GPVI peptide 54 [15]): ~4
LU (Light Units) (GPVI peptide 53 (human) [16]): 359 LU
LU (Light Units) (GPVI peptide 117 (human) [17]): 472 LU
LU (Light Units) (GPVI peptide 131 (human) [18]): 289 LU
LU (Light Units) (GPVI peptide 7 (human) [19]): 292 LU
LU (Light Units) (GPVI peptide 32 (human) [20]): 319 LU
LU (Light Units) (GPVI peptide 33 (human) [21]): 259 LU
LU (Light Units) (GPVI peptide 130 (human) [22]): 255 LU
LU (Light Units) (GPVI peptide 118 (human) [23]): 336 LU

The next lines start with the values.

ATP release, mouse platelet-rich plasma (mouse GPVI (mouse)): 1.09 nM ATP
platelet aggregation after stimulation with 2 µg collagen/ml, mouse platelet-rich plasma (mouse GPVI (mouse)): 2% and 1.5%
Molecule: JAQ1 (antibody)

fold lower affinity compared to dimeric Fc-GPVI-nt [12]: 10 fold
Molecule: monomeric GPVI fusion protein (Fc fusion)

— patent US20100003244A1 (TRIGEN, published 2010)
